B1: V-17-C; numbered along this chain (parent)
chain: EASNCFAIRHFENKFAVETLICFNLFLNSQEKHY

Variants of: B1
Assay: amyloid nucleation score relative to WT ADan (yeast Sup35 reporter selection) (log enrichment difference); higher = more amyloid nucleation
Procedure: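 Deep mutational scan of the ADan peptide fused to the Sup35 nucleation domain (SupN) in S. cerevisiae [psi-pin-], covering all single amino-acid substitutions and stop truncations (truncations = sequence up to the stop). After 24 h Cu2+ induction, cells were selected on -ADE-URA plates for 7 d at 30 °C. The nucleation score is log enrichment (output/input, deep sequencing) minus that of WT ADan, as the error-weighted mean of 3 biological replicates (DiMSum).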

Amyloid nucleation score, by site and new letter:
V17: C 0.711, I 0.523, A 0.689, D -0.492, G 0.953, Q -1.12, K 0.416, R 0.126, W -0.301, E -1.74, N -0.235, H -1.16, Y -2.81, P 0.114, F -0.0103, L -0.705, S 0.586, M -1.07, T -0.513
F26: G 0.778, E 0.392, P -3.34, Y -0.164, A -0.314, H 0.258, D -0.707, C 0.2, V -0.146, W 0.102, S -0.00989, N 0.113, K -3.31, Q -0.394, I -0.509, M -0.622, R -2.51, L -0.42, T -0.0939
E31: L -3.31, W -6.44, H -1.64, K -1.84, M -3.06, Q -0.871, I -2.59, P -0.569, C -2.07, S -0.961, F -5.7, R -2.51, G -0.564, T -1.22, D -0.000529, V -1.09, A -1.39, N -0.844, Y -2.5
N28: D -0.0589, A 0.139, R -2.75, Y -1.12, G 0.0833, I -0.963, K -2.63, S -0.365, E -0.442, H -1.83, F -0.101, M -0.403, V -1.04, Q -0.0342, T -0.313, P 0.0596, L -0.936, C 0.468, W -1.06
C22: Q 0.969, V 0.222, N 0.532, I -0.375, T -0.69, P -3.23, Y -2.4, E -2.4, L -0.346, F -0.753, G -1.17, H -1.92, K -2.31, D -3.23, A 0.347, R -3.03, W -2.89, S -1.65
N24: S -0.773, H -3.55, R -4.05, V -2.78, Y -3.1, K -3.17, G -0.57, A -1.52, L -3.39, M -3.68, E -3.7, C -4.06, I -3.74, T -2.11, W -4.76, P -0.19, D -3.51, Q -0.992, F -3.3
T19: E -0.714, A -2.16, L -4.84, Q 0.45, P 0.859, W -2.17, Y -0.511, I -3.44, N 0.196, C -2.47, H -0.0921, S 0.268, D -0.804, R 0.563, G 0.166, V -3.41, K 0.347, F -3.39, M -1.99
K32: E 0.78, P 0.00117, A 0.179, C -0.144, D 0.768, Y -0.0344, R -0.086, S 0.198, T 0.234, N 0.686, Q 0.041, W -0.739, V -0.601, H 0.279, I -1.31, G 0.113, M -0.157, F -0.726, L -0.598
I21: Q 0.332, N 0.877, W 0.109, H 0.679, R -1.05, K -0.182, G -0.00868, C 0.511, S 0.32, P -3.66, Y 0.68, V -0.0338, E -0.48, A -0.465, F 0.0204, M -0.308, D -3.79, T 0.7, L -0.0345
L27: G 0.726, K -0.947, Q 0.391, S 0.669, P 0.545, A -0.084, I 0.00956, Y 0.163, V 0.187, W 0.0695, R -1.01, N 0.524, D 0.457, E 0.567, M 0.15, T 0.731, C 0.66, H 0.303, F -0.518
L25: I -0.254, C 0.731, V -0.125, W -2.87, S -2.33, A 0.9, G -1.88, D -1.12, P -1.7, Y 0.539, Q 0.382, K -2.69, T 0.368, M 0.178, E -1.98, F 0.0915, H -2.4, N 0.307, R -3.04
E18: R -0.108, K 0.239, Q -0.141, H -0.855, W -4.12, S -0.355, T -1.61, F -2.56, I -3.49, L -2.63, Y -5.47, P 0.645, V -2.72, M -3.07, N 0.236, G 0.127, D 0.406, A -0.809, C -1.06
Q30: P -0.153, L -0.134, K -1.41, G -0.112, T -0.212, E 0.219, Y -0.751, N -0.383, D 0.207, M -0.23, W -0.8, R -0.927, I -0.931, A -0.161, S -0.0951, H -0.33, C -0.317, F -0.531, V -0.127
L20: H -2.5, A -1.66, P 0.75, R -3.67, G 0.273, E -3.91, I -0.22, V -1.46, M 1.01, N -1.24, W -2.59, Q -1.95, T -2.92, D -2.35, Y -2.66, F -0.103, K -4.53, S -3.53, C -0.49
A16: W -0.102, N 0.755, I -0.647, S 0.414, M -0.212, R 0.372, V -0.233, H 0.76, P -1.2, T 0.448, F 0.651, Q 0.708, K 0.514, Y 0.572, L -0.774, G 0.407
F23: Y 0.115, W -0.121, D 0.717, M 0.264, P -1.99, L 0.404, N -0.504, C 0.666, V 0.2, A 0.41, E 0.416, I -0.248, G 0.469, R 0.617, K 0.342, Q 0.146, H 0.305
S29: E 0.219, I -1.29, Y -1.65, F -1.68, M -0.489, A -0.27, W -1.86, D 0.326, Q 0.312, L -0.878, V -0.294, H -0.577, K 0.205, P -0.168, C -0.0428, G -0.16, N 0.0767, R -1.08, T 0.043
H33: I -1.01, S -0.164, L -0.693, T -0.406, D 0.264, A -0.505, C -1.33, M -0.289, F -0.205, K -0.0712, N 0.15, V -0.668, G -0.479, R -0.172, Q -0.171, E 0.174, P -0.211

From the supplement of paper PMC12067230
